# According to PMC11969024 (2025):
# B1: peptide HD2 (from tick evasin EVA4) / CCL11 (biotinylated, synthetic) (parent complex)
# chain 1: EEDDYTAYAPLTCYFT
# chain 2: not shown
# Variants of: B1
row,Variant,enrichment
1,chain 1 Y14I,-2.68 log2 (difference from the parental peptide)
2,chain 1 Y14E,-7.34 log2 (difference from the parental peptide)
3,chain 1 Y14Q,-4.82 log2 (difference from the parental peptide)
4,chain 1 D3E,1.42 log2 (difference from the parental peptide)
5,chain 1 D3P,-3.5 log2 (difference from the parental peptide)
6,chain 1 D3L,-3.39 log2 (difference from the parental peptide)
7,chain 1 D3N,-2.05 log2 (difference from the parental peptide)
8,chain 1 D3C,-10.5 log2 (difference from the parental peptide)
9,chain 1 D3H,-2.18 log2 (difference from the parental peptide)
10,chain 1 D3S,-2.82 log2 (difference from the parental peptide)
11,chain 1 D3W,-3.25 log2 (difference from the parental peptide)
12,chain 1 T16F,-0.46 log2 (difference from the parental peptide)
13,chain 1 T16R,-1.09 log2 (difference from the parental peptide)
14,chain 1 T16V,0.462 log2 (difference from the parental peptide)
15,chain 1 T16Y,-0.239 log2 (difference from the parental peptide)
16,chain 1 T16H,0.297 log2 (difference from the parental peptide)
17,chain 1 T16M,0.752 log2 (difference from the parental peptide)
18,chain 1 T6F,-4.68 log2 (difference from the parental peptide)
19,chain 1 T6Q,0.834 log2 (difference from the parental peptide)
20,chain 1 T6K,-1.28 log2 (difference from the parental peptide)
21,chain 1 T6E,3.27 log2 (difference from the parental peptide)
22,chain 1 T6A,1.96 log2 (difference from the parental peptide)
23,chain 1 T6D,3.92 log2 (difference from the parental peptide)
24,chain 1 A9K,-4.4 log2 (difference from the parental peptide)
25,chain 1 A9L,-7.13 log2 (difference from the parental peptide)

row,Variant,enrichment
1,chain 1 A9G,-4.51 log2 (difference from the parental peptide)
2,chain 1 A7T,-0.43 log2 (difference from the parental peptide)
3,chain 1 A7G,-1.16 log2 (difference from the parental peptide)
4,chain 1 A7Y,-0.616 log2 (difference from the parental peptide)
5,chain 1 A7V,-0.751 log2 (difference from the parental peptide)
6,chain 1 E2P,-2.92 log2 (difference from the parental peptide)
7,chain 1 Y5T,-4.78 log2 (difference from the parental peptide)
8,chain 1 Y5W,1.88 log2 (difference from the parental peptide)
9,chain 1 Y5P,-7.31 log2 (difference from the parental peptide)
10,chain 1 Y5D,-3.62 log2 (difference from the parental peptide)
11,chain 1 Y5V,-5.26 log2 (difference from the parental peptide)
12,chain 1 C13A,-8.03 log2 (difference from the parental peptide)
13,chain 1 C13H,-9.22 log2 (difference from the parental peptide)
14,chain 1 C13G,-8.69 log2 (difference from the parental peptide)
15,chain 1 P10Q,-3.8 log2 (difference from the parental peptide)
16,chain 1 P10L,-9.08 log2 (difference from the parental peptide)
17,chain 1 Y8M,-6.75 log2 (difference from the parental peptide)
18,chain 1 Y8L,-9.35 log2 (difference from the parental peptide)
19,chain 1 Y8S,-6.51 log2 (difference from the parental peptide)
20,chain 1 Y8F,1.62 log2 (difference from the parental peptide)
21,chain 1 E1A,-0.354 log2 (difference from the parental peptide)
22,chain 1 E1V,-1.08 log2 (difference from the parental peptide)
23,chain 1 E1P,-1 log2 (difference from the parental peptide)
24,chain 1 E1R,-2.69 log2 (difference from the parental peptide)
25,chain 1 E1H,-1.51 log2 (difference from the parental peptide)

row,Variant,enrichment
1,chain 1 E1K,-2.4 log2 (difference from the parental peptide)
2,chain 1 T12M,-1.76 log2 (difference from the parental peptide)
3,chain 1 T12Q,-1.12 log2 (difference from the parental peptide)
4,chain 1 T12A,-2.95 log2 (difference from the parental peptide)
5,chain 1 T12H,-1.8 log2 (difference from the parental peptide)
6,chain 1 T12Y,-1.75 log2 (difference from the parental peptide)
7,chain 1 F15W,-1.47 log2 (difference from the parental peptide)
8,chain 1 F15Y,0.26 log2 (difference from the parental peptide)
9,chain 1 F15G,-2.42 log2 (difference from the parental peptide)
10,chain 1 F15I,0.05 log2 (difference from the parental peptide)
11,chain 1 F15P,-0.525 log2 (difference from the parental peptide)
12,chain 1 F15C,-4.03 log2 (difference from the parental peptide)
13,chain 1 F15S,0.275 log2 (difference from the parental peptide)
14,chain 1 D4R,-6.08 log2 (difference from the parental peptide)
15,chain 1 D4M,-3.45 log2 (difference from the parental peptide)
16,chain 1 D4Q,-3.06 log2 (difference from the parental peptide)
17,chain 1 D4E,-0.216 log2 (difference from the parental peptide)
18,chain 1 D4H,-5.76 log2 (difference from the parental peptide)
19,chain 1 D4N,-2.87 log2 (difference from the parental peptide)
20,chain 1 D4A,-3.23 log2 (difference from the parental peptide)
21,chain 1 L11D,-6.85 log2 (difference from the parental peptide)
22,chain 1 L11C,1.22 log2 (difference from the parental peptide)
23,chain 1 L11M,2.06 log2 (difference from the parental peptide)
24,chain 1 L11P,-8.67 log2 (difference from the parental peptide)
25,chain 1 L11H,0.483 log2 (difference from the parental peptide)
